{"source": "paper PMC5331223", "about": "“Differential regulation of the Epr3 receptor coordinates membrane-restricted rhizobial colonization of root nodule primordia”", "binders": {"B1": {"name": "Nin1 probe (Epr3 promoter wt) (dsDNA)", "DNA 1": "ATACCCTGCCCTTACAGACAAGTATAAGAGGCACAAAA", "DNA 2": "TTTTGTGCCTCTTATACTTGTCTGTAAGGGCAGGGTAT"}}, "target": "NIN (520-878) (Lotus japonicus, UniProt Q9S7B1 520-878)", "sequence (Q9S7B1 entry or part of it)": "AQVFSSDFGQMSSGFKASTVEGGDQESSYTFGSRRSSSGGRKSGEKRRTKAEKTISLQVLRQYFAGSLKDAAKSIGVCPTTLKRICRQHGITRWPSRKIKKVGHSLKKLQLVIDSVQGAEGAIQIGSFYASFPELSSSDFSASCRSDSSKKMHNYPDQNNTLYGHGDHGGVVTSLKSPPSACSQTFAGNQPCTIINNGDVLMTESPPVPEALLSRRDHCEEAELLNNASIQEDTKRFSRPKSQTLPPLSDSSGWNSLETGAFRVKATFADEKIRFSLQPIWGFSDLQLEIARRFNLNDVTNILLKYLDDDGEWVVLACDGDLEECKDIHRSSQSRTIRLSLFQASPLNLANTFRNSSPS", "test": "EMSA; 25 mM Tris-HCl pH 8.0, 80 mM NaCl, 35 mM KCl, 5 mM MgCl2, 10% glycerol, 1 mM DTT, 0.1% Triton; 25 nM probe, 2 ul protein (ERN1 0.75 mg/ml, NIN 1.0 mg/ml stock); 30 min at 30 C (ERN1) or 37 C (NIN); gel in 0.5x TBE", "settings": "protein: recombinant; tags: His-tag (pET30); label: 6-FAM at 5' of strand 1; blunt"}
{"binder": "B1", "values": [{"measurement": "binding result", "result": "binds"}]}
